This is an account of results in patent publication US20020107366A1 (JURIDICAL FOUNDATION THE CHEMO SERO THERAPEUTIC RESEARCH …, published 2002).

First the molecules themselves.
B2: FLAF p40 (ligand)
chain: IWELEKNVYVVELDWHPDAPGEMVVLTCNTPEEDDITWTSDQSSEVLGSGKTLTIQVKEFADAGQYTCHKGGEVLSHSFLLIHKKEDGIWSTDILREQKESKNKIFLKCEAKNYSGRFTCWWLTAISTDLKFTVKSSRGSSDPQGVTCGAATLSAEKVRVDNRDYKKYTVECQEGSACPAAEESLPIEVVVDAIHKLKYENYTSSFFIRDIIKPDPPKNLQLKPLKNSRHVEVSWEYPDTWSTPHSYFSLTFGVQVQGKNNREKKDRLSVDKTSAKVVCHKDAKIRVQARDRYYSSSWSNWASVSCS
notes: also called protein with a molecular weight of about 40,000

The series “FLAF p40” has as its target B2. The series is described as follows: non-reducing SDS-PAGE and Western blot with anti-p35 and anti-p40 antibodies; subunit association. The procedure:
These bands were analyzed by Western blot as described in Example 2 wherein two membranes were prepared, i.e. one using a monoclonal antibody against the partial synthetic peptide of FLAF p35 produced by the clone F18-4 as described in Example 12 as a primary antibody and another using the antibody against FLAF p40 as described in Example 11. As a result, both p75 and p80 reacted with both antibodies to confirm that they are both heterologous dimer of FLAF p35 and FLAF p40.
A general note: Immunoblotting shows a protein as a band on a membrane.

Series [1] concerns the molecule itself. As to the kind of experiment: Western blot of culture supernatant of COS7 cells transfected with CAGfp40; self-association of p40. How it is done:
The day (20 hours) before transfection, COS7 cells were plated on a 6 well plate at 2×10⁵ cells/well. On the next day, Lipofect Ace reagent was mixed with the expression plasmid (1 μg of cAGf40 per well) and the mixture was left to stand at room temperature for 15 minutes and then added to the COS7 cells, followed by addition of serum free medium Opti-MEM (0.8 ml). On the next day, 2 ml of serum free medium (ASF104; Ajinomoto K. K.) was added and culture was continued for additional 2 days and then culture supernatant was recovered. A portion of the supernatant was subjected to Western blot as described in Example 11 to detect expression products which reacted with polyclonal antibodies which recognize FLAF p40. As a result, bands corresponding to FLAF p40 reactive with anti-FLAF p40 antibody (MW about 40,000) and to a homologous dimer thereof (MW about 80,000) were detected (FIG. 11).
A polyclonal antibody against FLAF p40 was prepared by injecting each 1 ml of the FLAF p40 expression plasmid (CAGfp40) (1 mg/ml; Example 5) intramuscularly into both rear legs of a rabbit four times at every 3 weeks. Western blot was used to determine whether the obtained antibody recognized FLAF p40 (FIG. 16). First, purified FLAF was subjected to SDS-PAGE in the absence of 2-mercaptoethanol and then transferred to PVDF membrane as described in Example 3. […]

B1: FLAF p35 (ligand)
chain: RNLPTPTPSPGMFQCLNHSQTLLRAISNTLQKARQTLEFYSCTSEEIDHEDITKDKTSTVEACLPLELTMNESCLASREISLITNGSCLASRKTSFMTTLCLSSIYEDLKMYQVEFKAMNAKLLMDPKRQIFLDQNMLTAIDELLQALNVNSVTVPQNSSLEEPDFYKTKIKLCILLHAFRIRAVTINRMMSYLNSS
notes: also called protein with a molecular weight of about 35,000
In the case of B1, the binding result in the series with FLAF p40 is “binds”.

Turning to B2, the binding result in series [1] was “binds”.
